According to patent publication US20050130152, “Method for performing in vitro diagnosis using gene regulation mechanisms and corresponding diagnosis kit” (UNISENSOR S.A., published 2005):

Target: T1, TetR class C (tetracycline repressor, pSC101) (Escherichia coli C600 (plasmid pSC101), UniProt P03039 P03039:1-219)
T1 sequence: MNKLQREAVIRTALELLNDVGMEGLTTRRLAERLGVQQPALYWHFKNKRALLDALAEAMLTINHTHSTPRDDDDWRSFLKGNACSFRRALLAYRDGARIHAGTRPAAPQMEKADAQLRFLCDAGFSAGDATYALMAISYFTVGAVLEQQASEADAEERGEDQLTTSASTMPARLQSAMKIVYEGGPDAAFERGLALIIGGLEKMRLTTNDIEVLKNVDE
Assay: immunochromatographic strip; test line 5218 without tetracycline, falling to 399 at 100 ppb tetracycline in milk; DNA immobilised via avidin
Conditions: tags: untagged; detected via anti-TetR serum and gold-labelled A-protein in strip assay; chain copies: 2; label: 5'-biotin on teta-40; 31 bp duplex with 5' single-strand poly-T tail
Description: 200 μl of milk are incubated in the presence of the lyophilised reagents and prepared as in Point 1.1.2.2. After two minutes of incubation at 37° C., the analysis strip described at 1.3 is immersed in the solution. The final interpretation is carried out after 8 minutes of incubation by means of an optical strip reader available from 77-Elektronika (Budapest, Hungary).

B1: tetA operator of pSC101 (teta-40/teta-30) (dsDNA)
DNA 1: TTTTTTTTTTTAATGCGGTAGTTTATCACAGTTAATTGCTAA
DNA 2: TTAGCAATTAACTGTGATAAACTACCGCATT
binding result: binds
